Results from patent publication US20240092934A1 (FAMEWAVE, published 2024).

T1: recombinant human CEACAM-1 (R&D Systems cat. no. 2244-CM-050) (human, UniProt P13688 35-428)
T1 construct: Coated on the ELISA plate at 0.5 ug/ml
T1 sequence (looked up): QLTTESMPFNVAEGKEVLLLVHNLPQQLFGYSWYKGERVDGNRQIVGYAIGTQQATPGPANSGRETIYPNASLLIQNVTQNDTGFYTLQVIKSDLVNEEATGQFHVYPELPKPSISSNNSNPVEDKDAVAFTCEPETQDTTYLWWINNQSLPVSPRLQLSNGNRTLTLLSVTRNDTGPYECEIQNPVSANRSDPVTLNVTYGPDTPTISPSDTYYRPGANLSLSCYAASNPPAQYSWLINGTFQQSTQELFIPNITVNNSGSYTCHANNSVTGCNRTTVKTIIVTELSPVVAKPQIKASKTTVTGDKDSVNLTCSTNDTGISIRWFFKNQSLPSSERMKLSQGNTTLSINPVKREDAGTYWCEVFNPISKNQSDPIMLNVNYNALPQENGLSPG


Each binder was assayed against T1, recombinant human CEACAM-1 (R&D Systems …) (assay: competition ELISA on coated recombinant human CEACAM-1; competitor biotinylated chimeric CM-10 IgG1).
Excerpt: The binding of the biotinylated antibody was detected with streptavidin-HRP (Sigma cat. no. S5512) and TMB substrate (Invitrogen cat. no. 00-2023). The reaction was stopped with 3M HC1, absorbance read at 450 nm on a Dynex Technologies MRX TC II plate reader and the binding curves plotted.

Binder | IC50 | IC50 normalized to CM-10
humanized anti-CEACAM-1 variant VH3/VK2, IgG1 (antibody, V domains shown, Tested as human IgG1 / kappa antibody; only the variable regions are tied to this variant) VH: QVQLVQSGAEVKKPGASVKVSCKASGYAFTNNLIEWVRQAPGQGLEWIGVINPGSGDTNYNEKFKGRATLTADKSINTAYMELSRLRSDDTAVYYCARGDYYGGFAVDYWGQGTTVTVSS VL: DIQMTQSPSSLSASVGDRVTITCRTSQDIGNYLNWYQQKPGKAVKLLIYYTSRLHSGVPSRFSGSGSGTDYTLTISSLQPEDIATYFCQQGKSLPRTFGGGTKVEIK | 0.85 µg/mL | 1.36 ratio to IC50 of chimeric CM-10
humanized anti-CEACAM-1 variant VH1/VK2, IgG1 (antibody, V domains shown, Tested as human IgG1 / kappa antibody; only the variable regions are tied to this variant) VH: QVQLVQSGAELKKPGASVKVSCKASGYAFTNNLIEWVKQAPGQGLEWIGVINPGSGDTNYNEKFKGRATLTADKSINTAYMELSSLTSDDSAVYFCARGDYYGGFAVDYWGQGTSVTVSS VL: DIQMTQSPSSLSASVGDRVTITCRTSQDIGNYLNWYQQKPGKAVKLLIYYTSRLHSGVPSRFSGSGSGTDYTLTISSLQPEDIATYFCQQGKSLPRTFGGGTKVEIK | 0.7 µg/mL | 1.32 ratio to IC50 of chimeric CM-10
humanized anti-CEACAM-1 variant VH3/VK1, IgG1 (antibody, V domains shown, Tested as human IgG1 / kappa antibody; only the variable regions are tied to this variant) VH: QVQLVQSGAEVKKPGASVKVSCKASGYAFTNNLIEWVRQAPGQGLEWIGVINPGSGDTNYNEKFKGRATLTADKSINTAYMELSRLRSDDTAVYYCARGDYYGGFAVDYWGQGTTVTVSS VL: DIQMTQSPSSLSASVGDRVTITCRTSQDIGNYLNWYQQKPGKAVKLLIYYTSRLHSGVPSRFSGSGSGTDYTLTISSLQQEDIATYFCQQGKSLPRTFGGGTKVEIK | 0.69 µg/mL | 1.1 ratio to IC50 of chimeric CM-10
humanized anti-CEACAM-1 variant VH4/VK1, IgG4 (S241P) (antibody, V domains shown, Tested as human IgG4 (S241P) / kappa antibody; only the variable regions are tied to this variant) VH: QVQLVQSGAEVKKPGASVKVSCKASGYAFTNNLIEWVRQAPGQGLEWIGVINPGSGDTNYNEKFKGRATLTADKSISTAYMELSRLRSDDTAVYYCARGDYYGGFAVDYWGQGTTVTVSS VL: DIQMTQSPSSLSASVGDRVTITCRTSQDIGNYLNWYQQKPGKAVKLLIYYTSRLHSGVPSRFSGSGSGTDYTLTISSLQQEDIATYFCQQGKSLPRTFGGGTKVEIK | 0.69 µg/mL | 1.15 ratio to IC50 of chimeric CM-10
humanized anti-CEACAM-1 variant VH2/VK3, IgG1 (antibody, V domains shown, Tested as human IgG1 / kappa antibody; only the variable regions are tied to this variant) VH: QVQLVQSGAEVKKPGASVKVSCKASGYAFTNNLIEWVKQAPGQGLEWIGVINPGSGDTNYNEKFKGRATLTADKSINTAYMELSRLRSDDTAVYFCARGDYYGGFAVDYWGQGTTVTVSS VL: DIQMTQSPSSLSASVGDRVTITCRTSQDIGNYLNWYQQKPGKAVKLLIYYTSRLHSGVPSRFSGSGSGTDYTFTISSLQPEDIATYFCQQGKSLPRTFGGGTKVEIK | 0.76 µg/mL | 1.21 ratio to IC50 of chimeric CM-10

Next, values leading:

IC50 | IC50 normalized to CM-10 | Binder
0.43 µg/mL | 0.84 ratio to IC50 of chimeric CM-10 | humanized anti-CEACAM-1 variant VH2/VK1, IgG4 (S241P) (antibody, V domains shown, Tested as human IgG4 (S241P) / kappa antibody; only the variable regions are tied to this variant) VH: QVQLVQSGAEVKKPGASVKVSCKASGYAFTNNLIEWVKQAPGQGLEWIGVINPGSGDTNYNEKFKGRATLTADKSINTAYMELSRLRSDDTAVYFCARGDYYGGFAVDYWGQGTTVTVSS VL: DIQMTQSPSSLSASVGDRVTITCRTSQDIGNYLNWYQQKPGKAVKLLIYYTSRLHSGVPSRFSGSGSGTDYTLTISSLQQEDIATYFCQQGKSLPRTFGGGTKVEIK
0.73 µg/mL | 1.23 ratio to IC50 of chimeric CM-10 | humanized anti-CEACAM-1 variant VH3/VK3, IgG4 (S241P) (antibody, V domains shown, Tested as human IgG4 (S241P) / kappa antibody; only the variable regions are tied to this variant) VH: QVQLVQSGAEVKKPGASVKVSCKASGYAFTNNLIEWVRQAPGQGLEWIGVINPGSGDTNYNEKFKGRATLTADKSINTAYMELSRLRSDDTAVYYCARGDYYGGFAVDYWGQGTTVTVSS VL: DIQMTQSPSSLSASVGDRVTITCRTSQDIGNYLNWYQQKPGKAVKLLIYYTSRLHSGVPSRFSGSGSGTDYTFTISSLQPEDIATYFCQQGKSLPRTFGGGTKVEIK
0.54 µg/mL | 1.05 ratio to IC50 of chimeric CM-10 | humanized anti-CEACAM-1 variant VH1/VK3, IgG4 (S241P) (antibody, V domains shown, Tested as human IgG4 (S241P) / kappa antibody; only the variable regions are tied to this variant) VH: QVQLVQSGAELKKPGASVKVSCKASGYAFTNNLIEWVKQAPGQGLEWIGVINPGSGDTNYNEKFKGRATLTADKSINTAYMELSSLTSDDSAVYFCARGDYYGGFAVDYWGQGTSVTVSS VL: DIQMTQSPSSLSASVGDRVTITCRTSQDIGNYLNWYQQKPGKAVKLLIYYTSRLHSGVPSRFSGSGSGTDYTFTISSLQPEDIATYFCQQGKSLPRTFGGGTKVEIK
0.77 µg/mL | 1.44 ratio to IC50 of chimeric CM-10 | humanized anti-CEACAM-1 variant VH1/VK3, IgG1 (antibody, V domains shown, Tested as human IgG1 / kappa antibody; only the variable regions are tied to this variant) VH: QVQLVQSGAELKKPGASVKVSCKASGYAFTNNLIEWVKQAPGQGLEWIGVINPGSGDTNYNEKFKGRATLTADKSINTAYMELSSLTSDDSAVYFCARGDYYGGFAVDYWGQGTSVTVSS VL: DIQMTQSPSSLSASVGDRVTITCRTSQDIGNYLNWYQQKPGKAVKLLIYYTSRLHSGVPSRFSGSGSGTDYTFTISSLQPEDIATYFCQQGKSLPRTFGGGTKVEIK
